# From the supplement of paper PMC9170038
# System: MS2 coat protein
# Experiment: apparent KD of MS2 coat protein; higher = weaker reporter binding
# Details: Eterna round: R107
# Method: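 RNA-MaP round R107: designed RNA switches with theophylline, tryptophan, arginine or FMN aptamers are transcribed on-chip within common flanks. They are titrated with SNAP-549-labelled MS2 coat protein in RNA-MaP buffer (100 mM Tris pH 7.5, 80 mM KCl, 4 mM MgCl2), without ligand or with the indicated ligand. Median apparent KD per design.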
# [1] = input ligand: theophylline 20 uM
# [2] = input ligand: tryptophan 2.4 mM
# [3] = input ligand: theophylline 2 mM
Sequence,apparent KD of MS2 coat protein (input ligand: arginine 13.2 mM) [nM],apparent KD of MS2 coat protein [1] [nM],apparent KD of MS2 coat protein [2] [nM],apparent KD of MS2 coat protein [3] [nM],apparent KD of MS2 coat protein (input ligand: none) [nM]
ACAUGAGGAUCACCCAUGUGCAGAACGGAUACCAGCGUCCUGGUACGCCCUUGGCAGCCGGACAUGAGGAUCACCCAUGUGUGGA [Exclusion Theophylline A GF29],56,161,105,,
ACAUGAGGAUCACCCAUGUUAAACAGGGUGCGAGGACCGGUACGGCCGCCACUCGGACAUUAUUACGAGUGAAUGGCAACGAUGU [#12 Exclusion Tryptophan A],26.5,24.1,,24.4,
ACAUGAGGAUCACCCAUGUUCCUCAUUGAUACCAGUGAAUUUAGACGCCCUUGGCAGCGAGUUUUUUUAUAAGAUGUUUUUUUUU [6.H],244,829,1040,,
ACAUGUUGGUGGUAUCUACGAAGGCGGAAACGAGGACCGGUACGGCCGCCACUCGGCGACAUGAGGAUCACCCAUGUGGUUAAAA [Exclusion - Tryptophan A (Freestyle 5)],28.8,96.9,,254,
ACAUUUAACUGAAGGAGCGUGAUAUACAUGAGGAUCACCCAUGUGUCUUUCAUGAAUAAUUCACAGGUAGGUCGCAGACUAAUGA [JR_ExcArginiB_Sub008],40.4,50.3,37.6,45.4,36.1
ACAUUUAACUGAAGGAGCGUGAUAUGUACAUGAGGAUCACCCAUGUCUUACAUGUGAUAUUCACAGGUAGGUCGCAGACUAAUGA [JR_ExcArginiB_Sub004],22.7,23.2,20.3,23,18.8
ACCUACACGGAGACGUGUAGGAGUAAUGAUACCAGCAUGGAGACAUGCCCUUGGCAGCGUUACAUGAGGAUCACCCAUGUGGUGC [ETHA #6],19.1,37.4,21.6,,
ACCUCAAUGGAUGAUACCAGCUCAAGGACGAACAUGAGGAUCACCCAUGUGACGUGGUGUAGCCCUUGGCAGCAUACUGACACCU [theeternabot_sameState_MS2_Theo_B_24],34.6,49,39.1,,
ACGAACGCACCUGAGGAUCACCCAGGUGAUACCAGCCUGGAAACAGGCCCUUGGCAGCACCUAAAAUAAAGGUAACGUUCGAAUA [TheoAX7 #MicroSwitchBubble #AlternativeMS2],41.1,165,61.9,173,74.2
ACGACGCAUACAGAUACCAGUAGCCGAGAAACAUGAGGAUCACCCAUGUCGAGCGACAACUGCCCUUGGCAGCUGUAUGCGUCAG [SSTheo B #12],8.02,10.3,8.02,,
ACGGAGAUUGCUAAAUGUUGGCGAGCGGAUACCAGCCUAUUAUUGGGCCCUUGGCAGCCGACAUGAGGAUCACCCAUGUAAACAA [Berere],9.36,90.8,76.7,,
ACGUAAUGCAGAAGGAGCGUCGACCUCUUACAUGAGGAUCACCCAUGUUGCAUGGUUGUACGACAGGUAGGUCGCUGAAGUACGA [#05 Exclusion - Arginine B],34.5,89.5,65.4,68.1,38.2
ACUACAUGAGGAUCACCCAUGUGUACUGAAGGAGCGGCGGAAACGCCAGGUAGGUCGCAGUACACCUCAACCAGCGGUCCUAAGU [EAA NP+V+V2 #1],30,85.9,51.1,115,38.2
ACUGCUUUAGCGGCCGCCACUACAUGGACACUUACACUUUCUUGUUACAUGAGGAUCACCCAUGUUAGGACCGGGCUUGUACGGA [theeternabot_exclusion_MS2_Trp_B_31],30.5,82.6,,68.4,
AGACAUGAGGAUCACCCAUGUAGCAUGGAUACCAGAUGUAGAUUAGUCCCUUGGCAGCUGUGGUGAAGUGAUGCAUUGCUCCUAG [Exclusion - Theophylline A (Freestyle 2)],29.9,74.3,50.1,,
